# Experimental data published in publication PMC6784373, “Development of a Label-Free Electrochemical Aptasensor for the Detection of Tau381 and its Preliminary Application in AD and Non-AD Patients’ Sera”.
# Biological target: tau381 (1N3R as printed) (human, UniProt P10636-4 1-381)
# Test: electrochemical aptasensor (DPV, EIS); aptamer immobilized on Au NP/thionin/carboxyl graphene GCE; linear 1.0-100 pM, LOD 0.70 pM (sensor values, not Kd); 0.1 M PBS pH 7.0, 5 uM aptamer for immobilization, 30 min tau381 incubation, DPV -0.6 to 0.2 V; EIS in 10 mM [Fe(CN)6]3-/4-; temperature not stated
# Conditions: protein: commercial
# tau381 (1N3R as printed), sequence (P10636 other isoform, or with tags, fused parts or gaps): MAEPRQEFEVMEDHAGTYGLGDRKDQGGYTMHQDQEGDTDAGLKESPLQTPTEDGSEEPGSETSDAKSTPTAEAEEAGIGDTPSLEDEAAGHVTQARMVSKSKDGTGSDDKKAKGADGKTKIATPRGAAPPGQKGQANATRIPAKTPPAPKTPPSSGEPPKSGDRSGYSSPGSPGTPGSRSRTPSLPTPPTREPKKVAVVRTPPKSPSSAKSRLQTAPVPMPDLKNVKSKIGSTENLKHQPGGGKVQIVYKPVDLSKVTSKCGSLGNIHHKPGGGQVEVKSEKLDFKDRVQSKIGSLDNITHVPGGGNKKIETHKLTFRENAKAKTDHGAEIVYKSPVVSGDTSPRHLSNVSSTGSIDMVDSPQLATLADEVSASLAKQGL
binder,measurement,value
"GCGGAGCGTGGCAGG (ssDNA, 5'-H2N) [tau381 aptamer (5'-amino)]",binding result,binds
